Patent US20180105595A1

B1: anti-human EGFRvIII WTE-CH12 antibody (antibody, V domains shown)
VH: DVQLQESGPGLVKPSQSLSLTCTVTAYSVTSDYAWNWIRQFPGNKLEWMGYISYSGTTRYNPSLKSRISITRDTSKNQFFLQLNSMTAEDTATYYCSRQGRGFPYWGQGTLVTVSA
VL: DILMTQSPSSMSVSLGDTVSITCHASQDINSNIGWLQQKPGKSFKGLIYHGTNLEDGVPSRFSGSGSGADYSLTISSLESEDFADYYCVQYAQFPWTFGGGTKLEIKR

How the values were obtained:
[1] = target: 2D8 scFv (anti-WTE)-CD8 hinge region-CD28a-CD28b-CD137-CD3ζ chimeric antigen receptor on T lymphocytes (human) (UniProt P01732); assay: cell-based or functional assay
[2] = target: human EGFRvIII (human) (UniProt P00533); assay: cell-based or functional assay

Chain of UniProt P01732 (P01732 other isoform, or with tags, fused parts or gaps mutant limits assumed): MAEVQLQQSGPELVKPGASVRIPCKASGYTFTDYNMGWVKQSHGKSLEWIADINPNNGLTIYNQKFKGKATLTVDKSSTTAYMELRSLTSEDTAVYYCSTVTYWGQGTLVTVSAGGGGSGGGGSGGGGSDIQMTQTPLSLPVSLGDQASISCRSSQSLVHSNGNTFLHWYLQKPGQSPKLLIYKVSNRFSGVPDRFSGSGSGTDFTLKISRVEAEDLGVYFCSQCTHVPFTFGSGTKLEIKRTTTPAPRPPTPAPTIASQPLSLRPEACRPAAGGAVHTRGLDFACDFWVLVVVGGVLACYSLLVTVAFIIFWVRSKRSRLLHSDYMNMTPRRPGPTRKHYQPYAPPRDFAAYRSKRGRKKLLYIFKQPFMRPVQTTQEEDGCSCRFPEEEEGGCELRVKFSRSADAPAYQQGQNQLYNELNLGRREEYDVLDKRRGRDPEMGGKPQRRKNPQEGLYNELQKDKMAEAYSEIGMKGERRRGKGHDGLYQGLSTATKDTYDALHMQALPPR

Row | Molecule | reduction of WTE-CH12-mediated cytotoxicity of CAR+ T cells on U87MG-EGFRvIII, free WTE polypeptide at 2-fold molar concentration of WTE-CH12, against Experimental group 1 [1] | reduction of WTE-CH12-mediated cytotoxicity of CAR+ T cells on U87MG-EGFRvIII, free WTE polypeptide at 20-fold molar concentration of WTE-CH12, against Experimental group 1 [1] | cytotoxicity % (LDH release) of anti-WTE CAR+ T cells on Huh-7-EGFRvIII cells at 10^4 ng/ml WTE-CH12, effector:target 3:1 [2] | cytotoxicity % (LDH release) of anti-WTE CAR+ T cells on U87MG-EGFRvIII cells at 10^4 ng/ml WTE-CH12, effector:target 10:1 [2]
1 | WTE polypeptide (free) (from UniProt P00533 1189-1210) | 31.1% | 87.8% | – | –
2 | B1 | – | – | 93% | 98.3%
